In paper PMC1540706:
pKd: −log10 of the molar value.

Legend:
epsinR peptide = experiment: ITC; details: stoichiometry (1.3)
[1] = target: human β2-appendage (700–937) used for ITC (human) (UniProt P63010); experiment: ITC; VP-ITC; 100 mM HEPES, 50 mM NaCl, 2 mM DTT pH 7.4 at 10 °C; peptides or proteins injected from the syringe into the cell
Sequence of human β2-appendage (700–937) used for ITC (human) (P63010 700-937): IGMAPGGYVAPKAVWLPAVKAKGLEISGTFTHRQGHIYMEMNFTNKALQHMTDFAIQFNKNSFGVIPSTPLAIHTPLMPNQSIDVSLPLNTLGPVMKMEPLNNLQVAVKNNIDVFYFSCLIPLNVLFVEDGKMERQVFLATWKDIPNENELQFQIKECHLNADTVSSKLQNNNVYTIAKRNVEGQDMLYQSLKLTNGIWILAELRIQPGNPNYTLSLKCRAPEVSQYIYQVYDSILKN

Sequence of human β2-appendage (700–937) used for ITC (P63010 whole entry Y888V, looked up, tested part not stated): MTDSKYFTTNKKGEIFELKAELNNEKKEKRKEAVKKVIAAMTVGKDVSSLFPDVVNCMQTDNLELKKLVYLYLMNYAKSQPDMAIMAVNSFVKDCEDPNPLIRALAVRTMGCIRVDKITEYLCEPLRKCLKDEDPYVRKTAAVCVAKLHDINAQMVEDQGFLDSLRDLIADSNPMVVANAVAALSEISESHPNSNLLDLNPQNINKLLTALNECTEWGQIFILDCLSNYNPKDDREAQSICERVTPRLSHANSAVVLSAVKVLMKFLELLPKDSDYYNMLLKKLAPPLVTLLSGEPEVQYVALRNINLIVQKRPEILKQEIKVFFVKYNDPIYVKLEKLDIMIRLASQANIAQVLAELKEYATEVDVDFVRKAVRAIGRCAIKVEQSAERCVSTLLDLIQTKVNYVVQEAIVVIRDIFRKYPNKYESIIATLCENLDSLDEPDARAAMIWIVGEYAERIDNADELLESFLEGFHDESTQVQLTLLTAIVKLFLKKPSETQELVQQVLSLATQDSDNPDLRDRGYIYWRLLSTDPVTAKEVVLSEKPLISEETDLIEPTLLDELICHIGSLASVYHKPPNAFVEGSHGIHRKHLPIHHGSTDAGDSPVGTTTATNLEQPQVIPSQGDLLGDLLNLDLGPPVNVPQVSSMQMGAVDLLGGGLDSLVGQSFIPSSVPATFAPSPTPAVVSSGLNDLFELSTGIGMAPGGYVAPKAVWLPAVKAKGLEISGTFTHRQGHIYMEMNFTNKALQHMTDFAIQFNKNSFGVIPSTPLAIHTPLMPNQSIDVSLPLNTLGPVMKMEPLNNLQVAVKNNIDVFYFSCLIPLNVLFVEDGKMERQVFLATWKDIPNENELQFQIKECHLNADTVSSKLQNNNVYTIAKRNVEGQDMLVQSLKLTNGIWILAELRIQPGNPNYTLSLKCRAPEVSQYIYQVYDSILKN

Substance | pKd (epsinR peptide) | pKd [1]
human β2-appendage (700–937) used for ITC (from UniProt P63010) Y888V | 4.11 | –
epsinR peptide | – | 4.10
